Assay results published in patent publication US20170247452A1 (MacroGenics, published 2017).

Experiments:
Test in all cases: cell-based or functional assay
[1] = biological target: T1, human CD19 on cells (CD20+ gated blood B cells; Raji/GF, HBL-2, Jeko-1 cells; CLL B cells) (human, UniProt P15391 20-556)
T1 sequence (looked up): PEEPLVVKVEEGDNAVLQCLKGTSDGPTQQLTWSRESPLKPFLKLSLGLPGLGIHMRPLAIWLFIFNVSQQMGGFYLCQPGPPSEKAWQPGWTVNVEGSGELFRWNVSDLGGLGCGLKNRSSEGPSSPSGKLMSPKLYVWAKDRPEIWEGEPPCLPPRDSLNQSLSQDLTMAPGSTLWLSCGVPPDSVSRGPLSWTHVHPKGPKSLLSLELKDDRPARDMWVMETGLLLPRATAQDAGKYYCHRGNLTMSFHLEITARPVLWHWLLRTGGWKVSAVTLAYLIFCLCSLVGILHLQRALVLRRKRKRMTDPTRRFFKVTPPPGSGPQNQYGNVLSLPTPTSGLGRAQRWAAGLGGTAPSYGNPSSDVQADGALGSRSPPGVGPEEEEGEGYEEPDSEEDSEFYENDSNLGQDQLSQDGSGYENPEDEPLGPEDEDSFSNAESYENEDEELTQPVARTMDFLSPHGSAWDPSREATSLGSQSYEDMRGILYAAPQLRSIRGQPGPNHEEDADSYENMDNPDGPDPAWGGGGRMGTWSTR

[2] = biological target: T1, human CD19 on cells (CD20+ gated blood …); remark: listed apart in the source
[3] = biological target: T1, human CD19 on cells (CD20+ gated blood …); remark: listed apart in the source
[4] = biological target: T1, human CD19 on cells (CD20+ gated blood …); remark: listed apart in the source
[5] = biological target: T2, cynomolgus monkey CD19 on CD20+ gated blood B cells (cynomolgus monkey, UniProt A0A2K5W8L9 20-557)
T2 sequence: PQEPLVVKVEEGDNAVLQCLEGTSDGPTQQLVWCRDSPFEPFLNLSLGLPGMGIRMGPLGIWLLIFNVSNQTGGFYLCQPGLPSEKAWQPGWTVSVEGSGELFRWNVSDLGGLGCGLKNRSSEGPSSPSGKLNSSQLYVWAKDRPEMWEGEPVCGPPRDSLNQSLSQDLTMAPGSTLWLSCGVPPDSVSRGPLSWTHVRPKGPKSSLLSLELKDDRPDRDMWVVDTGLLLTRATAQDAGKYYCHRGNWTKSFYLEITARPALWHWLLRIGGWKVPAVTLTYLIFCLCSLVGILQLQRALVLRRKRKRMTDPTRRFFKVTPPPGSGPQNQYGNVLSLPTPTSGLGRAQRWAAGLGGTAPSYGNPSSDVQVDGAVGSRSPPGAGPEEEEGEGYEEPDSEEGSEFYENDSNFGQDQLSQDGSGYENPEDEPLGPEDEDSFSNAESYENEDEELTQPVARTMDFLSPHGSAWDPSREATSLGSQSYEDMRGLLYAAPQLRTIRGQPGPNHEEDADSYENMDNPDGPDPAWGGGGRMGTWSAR

[6] = biological target: T1, human CD19 on cells (CD20+ gated blood …); remark: listed apart in the source
[7] = biological target: T1, human CD19 on cells (CD20+ gated blood …); remark: listed apart in the source

B1: DART-A (CD19×CD3 bi-specific monovalent Fc diabody) (bispecific antibody)
chain 1: ENVLTQSPATLSVTPGEKATITCRASQSVSYMHWYQQKPGQAPRLLIYDASNRASGVPSRFSGSGSGTDHTLTISSLEAEDAATYYCFQGSVYPFTFGQGTKLEIKGGGSGGGGEVQLVESGGGLVQPGGSLRLSCAASGFTFSTYAMNWVRQAPGKGLEWVGRIRSKYNNYATYYADSVKGRFTISRDDSKNSLYLQMNSLKTEDTAVYYCVRHGNFGNSYVSWFAYWGQGTLVTVSSASTKGEVAACEKEVAALEKEVAALEKEVAALEKGGGDKTHTCPPCPAPEAAGGPSVFLFPPKPKDTLMISRTPEVTCVVVDVSHEDPEVKFNWYVDGVEVHNAKTKPREEQYNSTYRVVSVLTVLHQDWLNGKEYKCKVSNKALPAPIEKTISKAKGQPREPQVYTLPPSREEMTKNQVSLWCLVKGFYPSDIAVEWESNGQPENNYKTTPPVLDSDGSFFLYSKLTVDKSRWQQGNVFSCSVMHEALHNHYTQKSLSLSPGK
chain 2: QAVVTQEPSLTVSPGGTVTLTCRSSTGAVTTSNYANWVQQKPGQAPRGLIGGTNKRAPWTPARFSGSLLGGKAALTITGAQAEDEADYYCALWYSNLWVFGGGTKLTVLGGGGSGGGGQVTLRESGPALVKPTQTLTLTCTFSGFSLSTSGMGVGWIRQPPGKALEWLAHIWWDDDKRYNPALKSRLTISKDTSKNQVFLTMTNMDPVDTATYYCARMELWSYYFDYWGQGTTVTVSSASTKGKVAACKEKVAALKEKVAALKEKVAALKE
chain 3: not shown
B1 was tested, and the “EC50, cytotoxicity against Raji/GF target cells with cynomolgus monkey PBMCs as effector cells (E:T = 30:1)” value [1] was 0.013 pM, the “average EC50 of redirected killing of HBL-2 cells, human T cells, E:T 10:1” value [1] was 0.105 pM and the “average EC50 of redirected killing of Jeko-1 cells, human T cells, E:T 10:1” value [1] was 0.146 pM. For the same binder, the “average EC50 of redirected killing of Raji/GF cells, human T cells, E:T 10:1” value [1] was 0.307 pM, the “EC50, redirected killing of Raji/GF cells, 24 hours, E:T = 5:1” value [2] was 0.67 pM and the “EC50, redirected killing of Raji/GF cells, 24 hours, E:T = 10:1” value [2] was 0.14 pM. For the same binder, the “EC50, redirected killing of Raji/GF cells, 48 hours, E:T = 2.5:1” value [2] was 1.08 pM, the “EC50, redirected killing of Raji/GF cells, 48 hours, E:T = 5:1” value [2] was 0.38 pM and the “EC50, redirected killing of Raji/GF cells, 48 hours, E:T = 10:1” value [2] was 0.0441 pM. For the same binder, the “EC50, redirected killing of Raji/GF cells, 72 hours, E:T = 1:1” value [3] was 2.79 pM, the “EC50, redirected killing of Raji/GF cells, 72 hours, E:T = 2.5:1” value [3] was 1.54 pM and the “EC50, redirected killing of Raji/GF cells, 96 hours, E:T = 1:1” value [3] was 0.44 pM. The “EC50, redirected killing of Raji/GF cells, 96 hours, E:T = 2.5:1” value [3] was 0.422 pM, the “EC50, autologous B cell depletion in human PBMCs, Human 5 (E:T = 8:1)” value [4] was 6.27 pM and the “EC50, autologous B cell depletion in human PBMCs, Human 6 (E:T = 8:1)” value [4] was 2.75 pM. For the same binder, the “EC50, autologous B cell depletion in human PBMCs, Human 7 (E:T = 5:1)” value [4] was 5.52 pM, the “EC50, autologous B cell depletion in human PBMCs, Human 8 (E:T = 9:1)” value [4] was 1.84 pM and the “mean EC50, autologous B cell depletion in human PBMCs” value [4] was 4.2 pM. The “EC50, autologous B cell depletion in cynomolgus monkey PBMCs, Cyno 5 (E:T = 3:1)” value [5] was 166 pM, the “EC50, autologous B cell depletion in cynomolgus monkey PBMCs, Cyno 6 (E:T = 2:1)” value [5] was 859 pM and the “EC50, autologous B cell depletion in cynomolgus monkey PBMCs, Cyno 7 (E:T = 3:1)” value [5] was 107 pM. For the same binder, the “EC50, autologous B cell depletion in cynomolgus monkey PBMCs, Cyno 8 (E:T = 7:1)” value [5] was 239 pM, the “mean EC50, autologous B cell depletion in cynomolgus monkey PBMCs” value [5] was 343 pM and the “mean EC50, IFN-γ release, human T cells with Raji/GF cells (n = 2)” value [6] was 5.51 pM. For the same binder, the “mean EC50, IL-2 release, human T cells with Raji/GF cells (n = 2)” value [6] was 6.32 pM, the “mean EC50, TNF-α release, human T cells with Raji/GF cells (n = 2)” value [6] was 3.71 pM and the “mean EC50, cytotoxicity, HBL-2 (n = 5), CTL assay” value [6] was 0.11 pM. The “mean EC50, cytotoxicity, Jeko-1 (n = 3), CTL assay” value [6] was 0.15 pM, the “mean EC50, cytotoxicity, Raji/GF (n = 5), CTL assay” value [6] was 0.31 pM and the “EC50, IFN-γ production, human T cells with Raji/GF cells, donor D44284, E:T = 10:1” value [7] was 2.44 pM. For the same binder, the “EC50, IFN-γ production, human T cells with Raji/GF cells, donor D47067, E:T = 10:1” value [7] was 8.58 pM, the “EC50, IL-2 production, human T cells with Raji/GF cells, donor D44284, E:T = 10:1” value [7] was 1.33 pM and the “EC50, IL-2 production, human T cells with Raji/GF cells, donor D47067, E:T = 10:1” value [7] was 11.3 pM. For the same binder, the “EC50, TNF-α production, human T cells with Raji/GF cells, donor D44284, E:T = 10:1” value [7] was 0.626 pM and the “EC50, TNF-α production, human T cells with Raji/GF cells, donor D47067, E:T = 10:1” value [7] was 6.79 pM.
